One molecule from US20020132977A1 (Harvard, published 2002) can be followed below.

For the test, the target named is T1, GFP-tagged p73 (human, UniProt O15350 1-636).
T1 construct: also called GFP-p73; not shown: GFP (pEGFP vector)
T1 sequence: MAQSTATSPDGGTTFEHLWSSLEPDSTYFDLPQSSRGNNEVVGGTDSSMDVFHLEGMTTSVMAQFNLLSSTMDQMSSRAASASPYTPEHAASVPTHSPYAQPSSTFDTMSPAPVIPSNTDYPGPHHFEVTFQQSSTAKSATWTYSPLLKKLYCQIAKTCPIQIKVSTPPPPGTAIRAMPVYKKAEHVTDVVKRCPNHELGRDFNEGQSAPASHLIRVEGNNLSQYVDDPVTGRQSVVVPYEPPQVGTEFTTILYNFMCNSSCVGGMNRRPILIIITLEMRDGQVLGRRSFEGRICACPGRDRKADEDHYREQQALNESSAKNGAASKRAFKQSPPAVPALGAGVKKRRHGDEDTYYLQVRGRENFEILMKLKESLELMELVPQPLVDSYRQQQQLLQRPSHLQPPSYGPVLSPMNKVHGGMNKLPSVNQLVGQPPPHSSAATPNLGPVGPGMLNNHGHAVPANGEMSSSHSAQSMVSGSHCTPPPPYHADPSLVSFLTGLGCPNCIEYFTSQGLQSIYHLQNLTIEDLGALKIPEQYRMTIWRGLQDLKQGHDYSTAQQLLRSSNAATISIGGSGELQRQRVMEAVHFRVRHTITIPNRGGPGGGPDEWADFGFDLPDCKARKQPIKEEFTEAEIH
The test can be described thus: anti-Flag IP, anti-GFP Western.

B1: p73β (p53aa319-364) (other)
chain: MAQSTATSPDGGTTFEHLWSSLEPDSTYFDLPQSSRGNNEVVGGTDSSMDVFHLEGMTTSVMAQFNLLSSTMDQMSSRAASASPYTPEHAASVPTHSPYAQPSSTFDTMSPAPVIPSNTDYPGPHHFEVTFQQSSTAKSATWTYSPLLKKLYCQIAKTCPIQIKVSTPPPPGTAIRAMPVYKKAEHVTDVVKRCPNHELGRDFNEGQSAPASHLIRVEGNNLSQYVDDPVTGRQSVVVPYEPPQVGTEFTTILYNFMCNSSCVGGMNRRPILIIITLEMRDGQVLGRRSFEGRICACPGRDRKADEDHYREQQALNESSAKNGAASKRAFKQSPPAVPALGAGVKKKPLDGEYFTLQIRGRERFEMFRELNEALELKDAQAGKEPGGSRAQQQQLLQRPSHLQPPSYGPVLSPMNKVHGGMNKLPSVNQLVGQPPPHSSAATPNLGPVGPGMLNNHGHAVPANGEMSSSHSAQSMVSGSHCTPPPPYHADPSLVRTWGP
notes: range 1-344;range 391-C-terminus; also called p73 chimera with OD of p53; Flag-tagged p53-p73 chimera with switched OD; not shown: Flag tag
For B1, the binding result is given as “no binding”.
